Measurements: US20260191981A1 (ARROWHEAD PHARMACEUTICALS, published 2026)
Changes are numbered by the printed parent chain.

B1: Fab0061 (Fab, V domains shown)
VH: EVQLVESGGGLVQPGGSLRLSCATSGYTFTSYWMHWVRQAPGKGLEWVAEINPTNGRVNYIEKFKSRITLSVDKSKSTVYLQMNSLRAEDTAVYYCARGTRAYHYWGQGTLVTVSS
VL: DIQLTQSPSSLSASVGDRVTITCRASDGLYSNLAWYQQKPGKAPKLLIYDATKLASGVPSRFSGSGSGTDYTLTISSLQPEDFATYYCQHFWGTPLTFGQGTKVEIKR
B2: Fab0002-siRNA conjugate (Fab, V domains shown)
VH: EVQLVQSGAEVKKPGASVKVSCKASGYTFTSYWMHWVRQAPGQRLEWIGEINPTNGRTNYIEKFKSRATLTVDKSASTAYMELSSLRSEDTAVYYCARGTRAYHYWGQGTMVTVSS
VL: B1 VL with L4M, G28N, A43S, I48V, K53N, S56D
modifications: siRNA-linker on a reduced cysteine; chain and residue not stated
notes: also called Fab0002 (BLI conjugate columns)
B3: Fab0065 (Fab, V domains shown)
VH: B1 VH with M34V, V58S
VL: B1 VL with G28N, S31R
B4: Fab0066 (Fab, V domains shown)
VH: B1 VH with M34V
VL: B1 VL with T52F, K53N
B5: Fab0063 (Fab, V domains shown)
VH: B1 VH
VL: B1 VL with K53R
B6: Fab0074-siRNA conjugate (Fab, V domains shown)
VH: B1 VH with T30K, V58T
VL: B1 VL with T52K, K53N
modifications: siRNA-linker on a reduced cysteine; chain and residue not stated
notes: also called Fab0074 (BLI conjugate columns)
B7: Fab0064 (Fab, V domains shown)
VH: B1 VH
VL: B1 VL with T52K, K53N
B8: Fab0062 (Fab, V domains shown)
VH: B1 VH
VL: B1 VL with T52F, K53N
B9: Fab0067 (Fab, V domains shown)
VH: B1 VH with M34V, V58T
VL: B1 VL with G28N, S31R
B10: Fab0060 (Fab, V domains shown)
VH: B1 VH with M34V, V58T
VL: B1 VL

What was measured:
[1] = molecular target: T1, cynomolgus monkey transferrin receptor 1 (cTfR1) (cynomolgus monkey, UniProt H9EXL1 89-760 (rhesus entry)); assay: competition ELISA, Fab
T1 construct: The ELISA against cTfR1 is not described in the text

[2] = molecular target: T2, his-tagged cTfR1 (Acro Biosystems p/n TFR-C524a) (cynomolgus monkey, UniProt H9EXL1 89-760 (rhesus entry)); assay: SPR, Biacore X100, His-tagged TfR1 captured by anti-His
T2 construct: Bought reagent of the SPR assay
Procedure: Samples were analyzed via Surface Plasmon Resonance (SPR) to determine kinetics against cynomolgus monkey transferrin receptor 1 (cTfR1). Briefly, a Biacore X100 (Cytiva) was used for SPR measurements using a CM5 chip (carboxymethylated dextran surface, Cytiva p/n BR100399) with anti-histidine antibody irreversibly immobilized on the surface of both flow cells for the reversible capture of his-tagged cTfR1 (Acro Biosystems p/n TFR-C524a). The anti-histidine antibody was irreversibly immobilized via amine coupling using Cytiva provided Amine Coupling Kit (p/n BR100050) and His Capture Kit (p/n 28995056). […] Sample diluent was prepared in house and is composed of 10 mM HEPES buffer pH 7.4, 150 mM NaCl, 3 mM EDTA, and 0.05% Tween 20. Cytiva caps and vials compatible for Biacore X₁₀₀ were used for sample analysis. Each analysis cycle consists of a capture step followed by sample or blank injection, and finally a regeneration step that removes any sample and cTfR1 on the sensor surface. The capture step was performed at 5 μL/min with a contact time of 24 seconds over the active flow cell only, followed by a fluidics wash with 0.1% Tween 20. Generally, 2 μg/mL hTfR1 was a sufficient concentration to observe adequate hTfR1 captured consistently between cycles. Sample or buffer was injected at 30 μL/min with a contact time of 180 seconds and dissociation time of 180 seconds followed by a fluidics wash with 0.1% Tween 20. A 10 mM glycine solution at pH 1.5 (provided in His Capture Kit) was used for regeneration at 30 μL/min with a 60 second contact time. A cycle was performed for each sample concentration analyzed along with one cycle repeating one concentration for variability evaluation and 2-3 buffer cycles. Results were analyzed in Biacore Evaluation Software. Buffer cycles were averaged and subtracted from sample injections prior to kinetic fitting. A monovalent or kinetic fit was specified as relevant for the sample analyzed. Accuracy of the fit is evaluated and data points are excluded as applicable.

[3] = molecular target: T3, human transferrin receptor 1 (hTfR1) (human, UniProt P02786 89-760, limits assumed); assay: competition phage ELISA (phage-displayed Fab)
T3 construct: The selections used the biotinylated ECD domain of hTfR1

[4] = molecular target: T4, his-tagged hTfR1 (Acro Biosystems p/n CD1-H5243) (human, UniProt P02786 89-760); assay: SPR, Biacore X100, His-tagged TfR1 captured by anti-His
T4 construct: Bought reagent of the SPR assay
Procedure: Samples were analyzed via Surface Plasmon Resonance (SPR) to determine kinetics against human transferrin receptor 1 (hTfR1). Briefly, a Biacore X100 (Cytiva) was used for SPR measurements using a CM5 chip (carboxymethylated dextran surface, Cytiva p/n BR100399) with anti-histidine antibody irreversibly immobilized on the surface of both flow cells for the reversible capture of his-tagged hTfR1 (Acro Biosystems p/n CD1-H5243). The anti-histidine antibody was irreversibly immobilized via amine coupling using Cytiva provided Amine Coupling Kit (p/n BR100050) and His Capture Kit (p/n 28995056). […] Sample diluent was prepared in house and is composed of 10 mM HEPES buffer pH 7.4, 150 mM NaCl, 3 mM EDTA, and 0.05% Tween 20. Cytiva caps and vials compatible for Biacore X100 are used for sample analysis. Each analysis cycle consists of a capture step followed by sample or blank injection, and finally a regeneration step that removes any sample and hTfR1 on the sensor surface. The capture step was performed at 5 μL/min with a contact time of 24 seconds over the active flow cell only, followed by a fluidics wash with 0.1% Tween 20. Generally, 2 μg/mL hTfR1 is a sufficient concentration to observe adequate hTfR1 captured consistently between cycles. Sample or buffer was injected at 30 μL/min with a contact time of 180 seconds and a dissociation time of 180 seconds followed by a fluidics wash with 0.1% Tween 20. A 10 mM glycine solution at pH 1.5 (provided in His Capture Kit) was used for regeneration at 30 μL/min with a 60 second contact time. A cycle was performed for each sample concentration analyzed along with one cycle repeating one concentration for variability evaluation and 2-3 buffer cycles. Results were analyzed in Biacore Evaluation Software. Buffer cycles were averaged and subtracted from sample injections prior to kinetic fitting. A monovalent or kinetic fit was specified as relevant for the sample analyzed. Accuracy of the fit was evaluated and data points are excluded as applicable. […]

[5] = molecular target: T3, human transferrin receptor 1 (hTfR1); assay: competition ELISA, Fab
[6] = molecular target: T1, cynomolgus monkey transferrin receptor …; assay: competition phage ELISA (phage-displayed Fab)
[7] = molecular target: T5, biotinylated cTfR1 (Acro Bio p/n TFR-C8249) (cynomolgus monkey, UniProt H9EXL1 89-760 (rhesus entry), biotinylated; site not stated); assay: BLI, Octet RH16, biotinylated TfR1 on streptavidin sensor; Fab-siRNA conjugate
T5 construct: Bought reagent of the BLI assay
Procedure: Samples were analyzed via Bio-Layer Interferometry (BLI) to determine kinetics against cynomolgus monkey transferrin receptor 1 (cTfR1). Briefly, an Octet RH16 (Sartorius) was used for BLI measurements using streptavidin biosensors (Sartorius p/n 18-5019) to irreversibly immobilize biotinylated cTfR1 (Acro Bio p/n TFR-C8249). […] Sample diluent was prepared in house and is composed of 10 mM PBS pH 7.4 (150 mM NaCl), 0.01% BSA, 0.002% Tween 20, and 0.01% kathon. A 96-well plate was used for analysis, filled with required samples solutions and a row of 10 μg/mL cTfR1 for loading of the streptavidin sensors. For each sample, one well was reserved for a reference sensor control (non-specific binding evaluation with no cTfR1 on surface in highest sample concentration) and a sample reference (buffer only on a cTfR1 loaded sample). One well was also reserved for a second replicate of one of the five concentrations to evaluate sensor and method variability. Eight channels were used for the highest sensitivity offered by the Octet RH16. For each assay performed, the steps were as follows: a sensor check for baseline evaluation of sensor alone in buffer was performed for 30 seconds, followed by loading of the cTfR1 for 60 seconds, then a baseline check for 90 seconds to verify stability of cTfR1 immobilized to sensor surface, then sample association for 180 seconds, and finally sample dissociation for 300 seconds. A shake speed of 1000 was used for all steps. Sample results were analyzed in Octet Analysis software.

[8] = molecular target: T6, biotinylated hTfR1 (Acro Bio p/n TFR-H82E5) (human, UniProt P02786 89-760, biotinylated; site not stated); assay: as above
T6 construct: Bought reagent of the BLI assay
Procedure: Samples were analyzed via Bio-Layer Interferometry (BLI) to determine kinetics against human transferrin receptor 1 (hTfR1). Briefly, an Octet RH16 (Sartorius) was used for BLI measurements using streptavidin biosensors (Sartorius p/n 18-5019) to irreversibly immobilize biotinylated hTfR1 (Acro Bio p/n TFR-H82E5). […] Sample diluent was prepared in house and is composed of 10 mM PBS pH 7.4 (150 mM NaCl), 0.01% BSA, 0.002% Tween 20, and 0.01% kathon. A 96-well plate was used for analysis, filled with required samples solutions and a row of 10 μg/mL hTfR1 for loading of the streptavidin sensors. For each sample, one well was reserved for a reference sensor control (non-specific binding evaluation with no hTfR1 on surface in highest sample concentration) and a sample reference (buffer only on a hTfR1 loaded sample). One well was also reserved for a second replicate of one of the five concentrations to evaluate sensor and method variability. Eight channels were used for the highest sensitivity offered by the Octet RH16. For each assay performed, the steps were as follows: a sensor check for baseline evaluation of sensor alone in buffer was performed for 30 seconds, followed by loading of the cTfR1 for 60 seconds, then a baseline check for 90 seconds to verify stability of cTfR1 immobilized to sensor surface, then sample association for 180 seconds, and finally sample dissociation for 300 seconds. A shake speed of 1000 was used for all steps. Sample results are analyzed in Octet Analysis software.

T3 sequence (P02786 89-760 limits assumed): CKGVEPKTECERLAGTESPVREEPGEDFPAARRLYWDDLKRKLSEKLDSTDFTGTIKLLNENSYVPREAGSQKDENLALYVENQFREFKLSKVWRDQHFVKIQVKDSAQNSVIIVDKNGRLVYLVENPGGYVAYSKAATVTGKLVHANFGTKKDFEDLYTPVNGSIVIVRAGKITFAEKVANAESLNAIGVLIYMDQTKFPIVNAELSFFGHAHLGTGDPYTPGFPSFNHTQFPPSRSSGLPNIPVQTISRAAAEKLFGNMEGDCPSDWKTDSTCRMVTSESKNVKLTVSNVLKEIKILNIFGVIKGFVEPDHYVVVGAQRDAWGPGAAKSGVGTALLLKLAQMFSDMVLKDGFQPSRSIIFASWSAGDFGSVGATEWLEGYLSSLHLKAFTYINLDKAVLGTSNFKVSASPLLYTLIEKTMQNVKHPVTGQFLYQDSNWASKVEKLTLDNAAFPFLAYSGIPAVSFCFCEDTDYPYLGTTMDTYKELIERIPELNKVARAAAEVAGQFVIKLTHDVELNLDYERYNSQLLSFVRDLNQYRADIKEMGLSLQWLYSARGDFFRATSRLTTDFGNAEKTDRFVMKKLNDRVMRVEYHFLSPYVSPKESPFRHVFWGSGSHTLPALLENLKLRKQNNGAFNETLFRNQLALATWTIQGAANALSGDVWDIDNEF
T6 sequence (P02786 89-760 limits assumed): as above
T4 sequence (P02786 89-760 limits assumed): as above
T1 sequence (chain, as listed by the source): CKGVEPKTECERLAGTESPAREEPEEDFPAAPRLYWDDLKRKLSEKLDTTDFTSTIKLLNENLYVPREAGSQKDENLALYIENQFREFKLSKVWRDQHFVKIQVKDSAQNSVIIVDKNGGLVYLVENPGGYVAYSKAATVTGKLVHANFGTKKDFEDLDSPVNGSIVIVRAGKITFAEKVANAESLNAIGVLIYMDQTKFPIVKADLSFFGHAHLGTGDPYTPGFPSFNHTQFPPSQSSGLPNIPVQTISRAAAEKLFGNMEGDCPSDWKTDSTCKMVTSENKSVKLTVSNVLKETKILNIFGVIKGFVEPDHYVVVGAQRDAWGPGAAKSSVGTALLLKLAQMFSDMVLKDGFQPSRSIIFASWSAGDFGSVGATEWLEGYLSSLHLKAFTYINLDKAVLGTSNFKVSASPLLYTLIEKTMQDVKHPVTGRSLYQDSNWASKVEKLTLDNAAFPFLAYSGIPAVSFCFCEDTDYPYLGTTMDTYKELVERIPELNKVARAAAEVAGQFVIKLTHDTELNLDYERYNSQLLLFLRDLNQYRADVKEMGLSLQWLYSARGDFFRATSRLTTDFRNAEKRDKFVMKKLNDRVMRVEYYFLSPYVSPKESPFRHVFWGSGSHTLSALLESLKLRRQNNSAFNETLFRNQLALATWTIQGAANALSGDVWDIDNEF
T5 sequence (chain, as listed by the source): as above
T2 sequence (chain, as listed by the source): as above

Row | Binder | Kd [1] | Kd [2] | koff [2] | kon [2] | Kd [3] | Kd [4] | koff [4] | kon [4] | Kd [5] | Kd [6] | Kd [7] | koff [7] | kon [7] | Kd [8] | koff [8] | kon [8]
1 | B1 | 5.15 nM | 1.75 nM | 0.0037 s⁻¹ | 2.11e+06 M⁻¹ s⁻¹ | 0.49 nM | 0.708 nM | 0.00101 s⁻¹ | 1.42e+06 M⁻¹ s⁻¹ | 0.95 nM | 1.75 nM | – | – | – | – | – | –
2 | B2 | – | – | – | – | – | – | – | – | – | – | 25.1 nM | 0.00732 s⁻¹ | 292000 M⁻¹ s⁻¹ | 16.7 nM | 0.00349 s⁻¹ | 209000 M⁻¹ s⁻¹
3 | B3 | 2.87 nM | 1.45 nM | 0.00259 s⁻¹ | 1.79e+06 M⁻¹ s⁻¹ | 0.26 nM | 0.413 nM | 0.00071 s⁻¹ | 1.72e+06 M⁻¹ s⁻¹ | 0.33 nM | 0.57 nM | – | – | – | – | – | –
4 | B4 | 9.4 nM | 4.35 nM | 0.00509 s⁻¹ | 1.17e+06 M⁻¹ s⁻¹ | 0.87 nM | 1.41 nM | 0.00139 s⁻¹ | 985000 M⁻¹ s⁻¹ | 0.91 nM | 1.34 nM | – | – | – | – | – | –
5 | B5 | 5.57 nM | 2.72 nM | 0.00446 s⁻¹ | 1.64e+06 M⁻¹ s⁻¹ | 0.48 nM | 0.598 nM | 0.00105 s⁻¹ | 1.75e+06 M⁻¹ s⁻¹ | 0.67 nM | 2.63 nM | – | – | – | – | – | –
6 | B6 | – | – | – | – | – | – | – | – | – | – | 12.2 nM | 0.00321 s⁻¹ | 264000 M⁻¹ s⁻¹ | 2.78 nM | 0.000793 s⁻¹ | 286000 M⁻¹ s⁻¹
7 | B7 | 5.04 nM | 2.45 nM | 0.00367 s⁻¹ | 1.5e+06 M⁻¹ s⁻¹ | 0.34 nM | 0.754 nM | 0.00111 s⁻¹ | 1.47e+06 M⁻¹ s⁻¹ | 0.67 nM | 2.02 nM | – | – | – | – | – | –
8 | B8 | 9.14 nM | 3.22 nM | 0.00515 s⁻¹ | 1.6e+06 M⁻¹ s⁻¹ | 0.65 nM | 0.993 nM | 0.00117 s⁻¹ | 1.18e+06 M⁻¹ s⁻¹ | 1.1 nM | 3.48 nM | – | – | – | – | – | –
9 | B9 | 3.02 nM | 1.75 nM | 0.00328 s⁻¹ | 1.87e+06 M⁻¹ s⁻¹ | 0.35 nM | 0.543 nM | 0.000804 s⁻¹ | 1.48e+06 M⁻¹ s⁻¹ | 0.52 nM | 0.95 nM | – | – | – | – | – | –
10 | B10 | 4.58 nM | 2.71 nM | 0.00357 s⁻¹ | 1.32e+06 M⁻¹ s⁻¹ | 0.49 nM | 0.907 nM | 0.00111 s⁻¹ | 1.22e+06 M⁻¹ s⁻¹ | 0.81 nM | 1.56 nM | – | – | – | – | – | –
